Source: US20160194394A1 (GOVERNING COUNCIL OF THE UNIVERSITY OF TORONTO, published 2016)

Legend:
[1] = molecular target: recombinant Frizzled receptor 7 (FZD7) cysteine-rich domain (CRD) fused to the Fc region of human IgG (human, UniProt O75084 33-185); assay: SPR
[2] = molecular target: FZD7 receptor expressed on cells (full-length) (UniProt O75084 33-574, limits assumed); assay: cell-based or functional assay

B1: IgG D10 (antibody, V domains shown)
VL: DIQMTQSPSSLSASVGDRVTITCRASQSVSSAVAWYQQKPGKAPKLLIYSASSLYSGVPSRFSGSRSGTDFTLTISSLQPEDFATYYCQQYWAPITFGQGTKVEIK
VH: EVQLVESGGGLVQPGGSLRLSCAASGFNIYYYYMHWVRQAPGKGLEWVASIYSYSGSTYYADSVKGRFTISADTSKNTAYLQMNSLRAEDTAVYYCARYASYVGYYPWALDYWGQGTLVTVSS
notes: Fab converted into full-length IgG1, made in 293F cells
Q: Which results are given for B1?
A: Kd [1]: 0.00145 µM; IC50, Wnt3a-induced Top Flash reporter (% ligand mediated) [2]: 0.123 µM
